Measured values reported in patent US20070185028A1, “Compositions and methods for treatment of protein misfolding and protein aggregation diseases” (priority 2004, published 2007).

biological target: T1, γD crystallin (Homo sapiens, UniProt P07320); test: γD crystallin Thioflavin T fluorescence (fibrillization); assay type: biochemical; conditions: 1:1 γD crystallin:peptide; 72 hrs
T1 sequence (P07320 2-174): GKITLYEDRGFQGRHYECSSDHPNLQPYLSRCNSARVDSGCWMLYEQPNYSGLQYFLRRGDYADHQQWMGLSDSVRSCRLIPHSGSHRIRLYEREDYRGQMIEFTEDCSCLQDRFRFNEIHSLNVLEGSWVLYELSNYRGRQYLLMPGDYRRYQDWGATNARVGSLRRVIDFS
Method: γD crystallin Thioflaviin T fluorescence. γD crystallin fibrils were formed in a similar way to that of γ crystalline. Meehan et al., J Biol Chem 279: 3413-3419, 2004. Peptides were dissolved to 9.1 mM in TFE and diluted to 0.91 mM stock solutions in 10% TFE, pH 2.0. 3.5 mg of Thioflavin T was dissolved in 100 μl of 50 mM Glycine pH 8.5. A stock solution of 1 mg/ml (0.22 mM) Aβ was prepared. 20 μl Aβ, 5 μl chaperone, 2 μl Thioflavin T was mixed with 73 μl 10% TFE, pH 2.0. Fluorescence was read using a Beckman Coultier DTX 880 multimode detector. Samples were heated at 50° C. for 72 hours and fluorescence was read again.
The fibrillization of γD crystallin was measured as fluorescence of the fluorescent dye Thioflavin T from solutions containing 1:1 monomeric molar ratio of γD crystallin:peptide. In the absence of fibrils Thioflavin T had little or no fluorescence. The fluorescence of the Thioflavin T bound to γD crystallin fibrils in the absence of any other molecule after 72 hrs was set to 100%. […] Fibril formation=ΔfluorescenceγD crystallin (with chaperone)*100/ΔfluorescenceγD crystallin (without chaperone).

Row | Sequence | effect on the fibrillization of γD crystallin (ranking)
1 | STSLSPFYLRPPSFLRAP | strongest effect

same assay, conditions: Thioflavin T; 1:1 γD crystallin:peptide; 50° C., 72 hours

Row | Sequence | Δfluorescence (γD crystallin)
2 | DRFSVNLDVKHFS | 661,038,176
3 | ERTIPITRE | 611,017,728
4 | HGKHEERQDE | 734,394,240
5 | LTITSSLSSDGV | 675,352,992
6 | STSLSPFYLRPPSFLRAP | 606,290,176

biological target: T2, equine alcohol dehydrogenase (ADH) (Equus caballus, UniProt P00327); test: αB crystallin protein pin array with alcohol dehydrogenase; assay type: binding; conditions: ADH as ligand in the pin array
T2 construct: purchased Sigma-Aldrich, MO 05646
T2 sequence (P00327 whole entry): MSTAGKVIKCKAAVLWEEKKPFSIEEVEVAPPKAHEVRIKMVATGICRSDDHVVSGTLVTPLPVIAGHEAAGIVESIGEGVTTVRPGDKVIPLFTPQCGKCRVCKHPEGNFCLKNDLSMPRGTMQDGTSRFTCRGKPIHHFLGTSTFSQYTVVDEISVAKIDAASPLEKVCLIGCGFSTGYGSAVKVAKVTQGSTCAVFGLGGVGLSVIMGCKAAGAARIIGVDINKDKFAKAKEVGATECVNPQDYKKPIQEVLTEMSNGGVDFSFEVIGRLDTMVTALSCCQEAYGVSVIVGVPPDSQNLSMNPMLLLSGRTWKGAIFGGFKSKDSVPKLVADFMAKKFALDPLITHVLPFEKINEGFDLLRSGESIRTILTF
Source text: Synthesis of Pins, binding and detection of peptides binding to ligand proteins. The αB crystallin protein pin array was used to measure the interaction between peptides and chaperone target proteins including bovine βH crystallin, human γD crystallin, equine alcohol dehydrogenase (ADH) and porcine citrate synthase (CS) as described (FIG. 12). Ghosh and Clark, Protein Sci 14: 684-95, 2005.
Refer to the methods section for detailed protocols. The absorbance corresponding to the blue coloration in each well was measured at λ=450 nm and plotted against the amino acid sequence of the corresponding peptide in that well (FIGS. 13 and 14). Wells containing peptides that have strong interactions with target proteins are dark blue and wells containing peptides that have weak or no interaction with target proteins are light blue or clear.
The purity of the target proteins used in the pin array assays, bovine βH crystallin, human γD crystallin, equine alcohol dehydrogenase (ADH) and porcine citrate synthase (CS) were determined to be >90% by SDS-PAGE. In addition, primary antibodies for each target protein were specific to that target protein and consequently contaminating proteins that may bind to the peptides will not be detected. Eighty-four sequential and overlapping peptide fragments corresponding to residues 1-175 of human αB crystallin were synthesized employing a simultaneous peptide synthesis strategy developed by Geysen, called Multipin Peptide Synthesis (Mimotopes, San Diego, Calif.). Geysen, Southeast Asian J Trop Med Public Health 21: 523-33, 1990; Chin et al., J Org Chem 62: 538-539, 1997. Peptides were immobilized on derivatized polyethylene pins arranged in a microtiter ELISA plate format. Each peptide was eight amino acids in length and consecutive peptides were offset by two amino acids. All peptides were bound covalently to the surface of the plastic pins. The first peptide was 1MDIAIHHP8 and the last peptide was 168PAVTAAPK175 for human αB crystallin.
Ghosh and Clark, Protein Sci 14: 684-95, 2005. […] The intensity of the blue color in the wells was measured at 450 nm using an ELISA plate-reader (BioTek, Winooski, Vt.). The intensity of the blue color (plotted on the X-axis) was a measure of the interaction between αB crystallin peptides (plotted on the Y-axis) and target proteins. To measure the effect of temperature on the interactions between interactive peptides and the target proteins, the target proteins were heated in a water-bath at 45° C. for fifteen minutes prior to use. Pin arrays are unable to differentiate between monomers, dimers or oligomers of target proteins that exist in solution. Instead, pin arrays are very sensitive detectors of interactions between individual peptides and the entire population (monomers, dimers or oligomers) of specific target proteins that may exist in solution under specific conditions. Each target protein was assayed two to five times. A single pin array was used for all experiments and no change in interactions was observed after more than thirty repetitions. The last three peptides of the protein pin array, 163REEKPAVT170, 165EKPAVTAA172, 167PAVTAAPK174, correspond to the epitope (163REEKPAVTAAPKK175) recognized by the primary antibody for human αB crystallin. A positive reaction is observed for these three peptides in the absence of human αB crystallin as the ligand due to direct binding of the anti-human αB crystallin antibody to these three peptides. The loss of efficiency for the pin array was measured using this assay. The loss of efficiency for the pin array was determined to be <5% by after more than 30 assays.
The pattern of absorbance at k=450 nm when αB crystallin peptides were assayed with unheated and pre-heated ADH was similar to the absorbance pattern obtained with unheated and pre-heated βH/γD crystallin (FIG. 17). […]

Row | Sequence | absorbance at 450 nm, interaction with ADH
7 | FSVNLDVK [Peptide 38] | Maximum absorbances
8 | LTITSSLS [Peptide 66] | Maximum absorbances
9 | WIRRPFFP [Peptide 5] | Maximum absorbances
